Laboratory results reported in article PMC8509397.

Target: T1, IFNγ cellular receptor (IFNGR1 and IFNGR2) on WISH cells (human (endogenous in WISH cells)) (UniProt P15260)
T1 sequence 1: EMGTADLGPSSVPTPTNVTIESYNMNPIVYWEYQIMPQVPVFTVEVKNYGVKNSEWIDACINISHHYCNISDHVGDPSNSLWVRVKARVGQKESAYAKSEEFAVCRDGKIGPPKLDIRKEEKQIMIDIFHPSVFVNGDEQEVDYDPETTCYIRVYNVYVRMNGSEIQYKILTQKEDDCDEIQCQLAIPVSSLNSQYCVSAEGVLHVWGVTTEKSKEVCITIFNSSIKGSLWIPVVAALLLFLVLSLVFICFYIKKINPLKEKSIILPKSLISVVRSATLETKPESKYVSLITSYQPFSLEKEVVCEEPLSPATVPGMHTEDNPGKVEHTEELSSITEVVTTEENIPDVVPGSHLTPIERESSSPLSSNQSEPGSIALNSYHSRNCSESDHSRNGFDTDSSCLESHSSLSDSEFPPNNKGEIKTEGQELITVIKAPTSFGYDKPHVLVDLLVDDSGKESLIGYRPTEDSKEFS
T1 sequence 2: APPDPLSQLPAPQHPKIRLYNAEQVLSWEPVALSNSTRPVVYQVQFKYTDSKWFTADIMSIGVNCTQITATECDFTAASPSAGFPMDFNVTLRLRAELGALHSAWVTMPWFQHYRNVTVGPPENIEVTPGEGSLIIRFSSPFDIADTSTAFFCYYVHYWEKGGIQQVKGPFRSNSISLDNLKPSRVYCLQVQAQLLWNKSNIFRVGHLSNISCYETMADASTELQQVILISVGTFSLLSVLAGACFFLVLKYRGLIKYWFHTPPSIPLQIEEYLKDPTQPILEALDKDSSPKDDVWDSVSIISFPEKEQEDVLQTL

recombinant interferon-gamma (IFNγ) (from UniProt P01579 24-161) (ligand)
antiproliferative activity of IFNγ (IDO induction, modified kynurenine bioassay) on WISH cells, 100 IU/mL IFNγ with LMWH (Fraxiparine): LMWH concentration that reduces the activity to 50% of control: 35 IU/mL | inhibition of IDO induction by 100 IU/mL IFNγ on WISH cells with LMWH (Fraxiparine) 1.5 to 150 anti-Xa IU/mL; highest value at 150 IU/mL: < 80%
